Results published in patent publication US20230374147A1 (HUMMINGBIRD BIOSCIENCE PTE, published 2023).
Where two headings read alike, the source gives them in different places.

Experiments:
[1] = molecular target: T1, His-tagged human BCMA (Acro Biosystems, Cat. #BCA-H522y) (human, UniProt Q02223 1-54); assay: ELISA, coated His-tagged human BCMA
T1 construct: also called huBCMA; P1; not shown: His tag
T1 sequence: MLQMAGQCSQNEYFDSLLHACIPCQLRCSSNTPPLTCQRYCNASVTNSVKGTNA

[2] = molecular target: T2, human TACI expressed on cells (human, UniProt O14836 1-293); assay: flow cytometry, HEK 293 cells expressing human TACI
T2 construct: also called wildtype human TACI
T2 sequence: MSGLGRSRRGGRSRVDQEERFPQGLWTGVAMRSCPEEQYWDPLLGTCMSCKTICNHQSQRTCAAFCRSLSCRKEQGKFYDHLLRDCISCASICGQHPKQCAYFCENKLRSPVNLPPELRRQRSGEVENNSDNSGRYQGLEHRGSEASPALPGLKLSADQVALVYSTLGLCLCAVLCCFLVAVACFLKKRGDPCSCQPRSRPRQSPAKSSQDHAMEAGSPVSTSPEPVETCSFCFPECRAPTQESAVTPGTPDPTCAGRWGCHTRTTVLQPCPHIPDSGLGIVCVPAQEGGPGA

[3] = molecular target: T3, His-tagged mouse BCMA (Acro Biosystems, BCA-M52H3) (mouse, UniProt O88472 1-49); assay: BLI, His-tagged mouse BCMA on HIS1K tip; R2 0.9686
T3 construct: Bought protein; not shown: His tag
T3 chain: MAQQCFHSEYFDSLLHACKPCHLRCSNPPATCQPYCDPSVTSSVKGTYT

[4] = molecular target: T4, His-tagged cynomolgous macaque BCMA (Acro Biosystems, BCA-C52H7) (cynomolgus macaque, UniProt Q02223 1-54 (human entry)); assay: BLI, His-tagged cynomolgus BCMA on HIS1K tip; R2 0.9022
T4 construct: Bought protein; also called cyno BCMA; CyBCMA; not shown: His tag

[5] = molecular target: T5, human BCMA expressed on cells (human, UniProt Q02223 1-184); assay: flow cytometry, H929 cells (BCMA-expressing)
T5 construct: the cell line is named under assay; also called wildtype human BCMA
T5 sequence: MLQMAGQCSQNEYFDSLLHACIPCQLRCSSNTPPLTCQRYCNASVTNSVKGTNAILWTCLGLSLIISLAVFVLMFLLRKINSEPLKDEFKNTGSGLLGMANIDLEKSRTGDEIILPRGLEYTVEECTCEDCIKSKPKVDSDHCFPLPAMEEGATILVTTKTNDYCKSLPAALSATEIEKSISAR

[6] = molecular target: T4, His-tagged cynomolgous macaque BCMA …; assay: BLI, His-tagged cynomolgus BCMA on HIS1K tip
[7] = molecular target: T1, His-tagged human BCMA (Acro Biosystems, …); assay: BLI, His-tagged human BCMA on HIS1K tip, no APRIL; R2 0.9919
[8] = molecular target: T1, His-tagged human BCMA (Acro Biosystems, …); assay: ELISA, coated His-tagged human BCMA; remark: listed apart in the source
[9] = molecular target: T6, recombinant his-tagged human TACI (Sinobiological cat #11937-H08H) (human, UniProt O14836 1-165); assay: ELISA, coated His-tagged human TACI
T6 construct: Bought protein; also called Human TACI-His; huTACI; not shown: His tag
T6 sequence: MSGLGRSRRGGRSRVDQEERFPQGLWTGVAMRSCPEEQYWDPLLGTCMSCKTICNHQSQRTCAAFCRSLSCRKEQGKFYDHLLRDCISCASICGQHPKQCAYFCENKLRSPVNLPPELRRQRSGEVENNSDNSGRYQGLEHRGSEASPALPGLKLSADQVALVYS

[10] = molecular target: T1, His-tagged human BCMA (Acro Biosystems, …); assay: BLI, His-tagged human BCMA on HIS1K tip; R2 0.9919
[11] = molecular target: T7, cynomolgous macaque BCMA expressed on CHOK1 cells; assay: flow cytometry, CHOK1 cells transiently expressing cynomolgus BCMA
T7 construct: also called cyno BCMA on cells

BCMA Mut = molecular target: T8, BCMA Mut (human, UniProt Q02223 1-184); assay: flow cytometry on HEK293T cells expressing BCMA Mut
T8 construct: Expressed on HEK293T cells; also called human BCMA comprising the substitutions Y13A, D15A, L17G and L18G
T8 chain: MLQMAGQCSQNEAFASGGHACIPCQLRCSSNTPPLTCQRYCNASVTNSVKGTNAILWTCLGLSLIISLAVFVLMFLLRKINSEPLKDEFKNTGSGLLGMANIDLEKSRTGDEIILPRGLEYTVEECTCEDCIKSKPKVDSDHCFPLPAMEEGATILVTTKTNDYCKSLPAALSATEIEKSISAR

[12] = molecular target: T6, recombinant his-tagged human TACI …; assay: ELISA, coated His-tagged human TACI; remark: listed apart in the source
[13] = molecular target: T5, human BCMA expressed on cells; assay: flow cytometry, H929 cells (BCMA-expressing); remark: listed apart in the source
[14] = molecular target: T1, His-tagged human BCMA (Acro Biosystems, …); assay: competition ELISA: His-tagged human BCMA binding to coated APRIL-Fc in the presence of the antibody
[15] = molecular target: T5, human BCMA expressed on cells; assay: flow cytometry, HEK 293 cells expressing human BCMA
[16] = molecular target: T5, human BCMA expressed on cells; assay: flow cytometry, HEK293 cells stably expressing human BCMA
[17] = molecular target: T3, His-tagged mouse BCMA (Acro Biosystems, …); assay: BLI, His-tagged mouse BCMA on HIS1K tip
[18] = molecular target: T1, His-tagged human BCMA (Acro Biosystems, …); assay: BLI, His-tagged human BCMA on HIS1K tip
[19] = molecular target: T3, His-tagged mouse BCMA (Acro Biosystems, …); assay: BLI, His-tagged mouse BCMA on HIS1K tip; R2 0.2621, below the filing's cut-off of 0.9
[20] = molecular target: T6, recombinant his-tagged human TACI …; assay: ELISA, coated His-tagged human TACI; remark: listed apart in the source
[21] = molecular target: T4, His-tagged cynomolgous macaque BCMA …; assay: BLI, His-tagged cynomolgus BCMA on HIS1K tip; R2 0.9205
[22] = molecular target: T1, His-tagged human BCMA (Acro Biosystems, …); assay: BLI, His-tagged human BCMA on HIS1K tip; R2 0.9903
[23] = molecular target: T1, His-tagged human BCMA (Acro Biosystems, …); assay: BLI, His-tagged human BCMA on HIS1K tip, no APRIL; R2 0.9903
[24] = molecular target: T7, cynomolgous macaque BCMA expressed on …; assay: flow cytometry, CHOK1 cells transiently expressing cynomolgus BCMA; remark: listed apart in the source
[25] = molecular target: T5, human BCMA expressed on cells; assay: flow cytometry, HEK293 cells stably expressing human BCMA; remark: listed apart in the source
[26] = molecular target: T1, His-tagged human BCMA (Acro Biosystems, …); assay: BLI, His-tagged human BCMA on HIS1K tip, no APRIL; R2 0.9915
[27] = molecular target: T1, His-tagged human BCMA (Acro Biosystems, …); assay: BLI, His-tagged human BCMA on HIS1K tip; R2 0.9915
[28] = molecular target: T3, His-tagged mouse BCMA (Acro Biosystems, …); assay: BLI, His-tagged mouse BCMA on HIS1K tip; R2 0.9403
[29] = molecular target: T4, His-tagged cynomolgous macaque BCMA …; assay: BLI, His-tagged cynomolgus BCMA on HIS1K tip; R2 0.9915

B1: 538-SP5-B10 hIgG1 (antibody, V domains shown)
VH: EVQLQQSGPELVKPGASVKMSCKASGYTFTSYVMHWVKQKPGRGLEWIAYILPFNDVTKYNEKFKGKATLTSDKSSNTAYMELSSLTSEDSAVYYCARWEWDDGYFDYWGQGTTLTVSS
VL: DAVMTQTPLSLPVSLGDQASISCRSSQSLENSNGNTYLNWYLQKPGQSPQLLIYRVSNRFSGVLDRFSGSGSGTDFTLKISRVEAEDLGVYFCLQVSHVPFTFGAGTKLELKR
notes: Human-mouse chimeric antibody, human IgG1 format
B1 was tested, and the “EC50 (read off the curve)” value [1] was roughly 0.01 µg/mL, the EC50 [2] was 24.1 nM and the Kd [3] was 47.5 nM. For the same binder, the Kd [4] was 31.4 nM, the “EC50 (read off the curve)” value [5] was roughly 0.03 µg/mL and the “Cyno BCMA response” value [6] was 0.895. The Kd [7] was less than 0.001 nM, the EC50 [8] was 0.085 nM and the EC50 [9] was 2.53 nM. The Kd [10] was less than 0.001 nM, the binding result [11] was “binds” and the binding result (BCMA Mut) was “no binding”. The “EC50 (read off the curve)” value [12] was roughly 0.4 µg/mL, the “EC50 (read off the curve)” value [13] was roughly 1 nM and the IC50 [14] was 0.39 nM. For the same binder, the EC50 [15] was 0.21 nM, the “EC50 (read off the curve)” value [16] was roughly 0.03 µg/mL and the “Mouse BCMA response” value [17] was 1.31. The “Human BCMA response” value [18] was 2.35.

B2: 539-SP7-F4 hIgG1 (antibody, V domains shown)
VH: EVQLQQSGPELVKPGASMKISCKASGYSFTGYIMNWVKQSHGKNLEWIGLINPYNGDSIYNQKFKGKATLTVDKSSSTAYMELFSLTSEDSTVYYCAAGEEFAYWGQGTLVTVSA
VL: DIQMTQTSSSLSASLGDRVTISCRASQDISIYLNWFQQKPDGTVKLLIYFTSRLHPGVPSRFSASGSGTDYSLTISHLEHEDIATYFCQQGNTLPRTFGGGTKVELKR
notes: as for B1
With B2 the Kd [19] was 8.97 nM, the binding result [20] was “no binding (tested: 10 ug/ml)” and the “EC50 (read off the curve)” value [5] was roughly 0.04 µg/mL. The Kd [21] was 34.1 nM, the “Cyno BCMA response” value [6] was 1.36 and the Kd [22] was less than 0.001 nM. For the same binder, the Kd [23] was less than 0.001 nM, the binding result [24] was “binds” and the “EC50 (read off the curve)” value [25] was roughly 0.05 µg/mL. The “Mouse BCMA response” value [17] was 0.371 and the “Human BCMA response” value [18] was 2.61.

B3: 539-SP1-C8 hIgG1 (antibody, V domains shown)
VH: EVQLQQSGPELVKPGSSVKMSCKASGYTFTNYVMHWVKQKPGQGLEWIGYILPYNDGTKYNEKFKGKATLTSDKSSSTAYMEFSVLTSEDSAVYYCARYDYEGSFDYWGQGTALTVSS
VL: DIQMTQTTSSLSASLGDRVTISCRASQDISNYLNWYQQKPDGTVKLLMCYTSRLHSGVPSRFSGSGSGTDFSLTISNLEQEDIATYFCQQGNTFPPTFGGGTKLEIKR
notes: Human-mouse chimeric antibody, human IgG1 format; also called [2]
In the case of B3, the “EC50 (read off the curve)” value [1] is reported as roughly 0.009 µg/mL, the Kd [26] is reported as less than 0.001 nM and the EC50 [2] is reported as 8.2 nM. The “EC50 (read off the curve)” value [5] was roughly 0.02 µg/mL, the Kd [27] was less than 0.001 nM and the “Cyno BCMA response” value [6] was 0.456. For the same binder, the EC50 [8] was 0.059 nM, the EC50 [9] was 0.083 nM and the binding result [11] was “binds”. For the same binder, the binding result (BCMA Mut) was “no binding”, the “EC50 (read off the curve)” value [12] was roughly 0.01 µg/mL and the “EC50 (read off the curve)” value [13] was roughly 1 nM. It also gave a Kd [28] of 29.5 nM, an IC50 [14] of 1.17 nM and an EC50 [15] of 2.56 nM. The “EC50 (read off the curve)” value [16] was roughly 0.4 µg/mL, the Kd [29] was 14.7 nM and the “Mouse BCMA response” value [17] was 0.86. The “Human BCMA response” value [18] was 2.46.
